From patent US20220220174A1 (BIMYO, published 2022) come the findings set out here.

The chains are these.
B1: truncated BNIP3-20A fragment WVELHFSN (peptide)
peptide: WVELHFSN
notes: Peptide immobilised on the microarray; also called BNIP3 13-20
B2: truncated BNIP3-20A fragment SGEENLQGSWVELHFSN (peptide)
peptide: SGEENLQGSWVELHFSN
notes: Peptide immobilised on the microarray; also called BNIP3 4-20
B3: BNIP3-20A peptide sequence MSQSGEENLQGSWVELHFSN (BNIP3 amino acids 1-20, wild type) (peptide)
peptide: MSQSGEENLQGSWVELHFSN
notes: Peptide immobilised on the microarray; also called BNIP3 1-20
B4: truncated BNIP3-20A fragment SWVELHFSN (peptide)
peptide: SWVELHFSN
notes: Peptide immobilised on the microarray; also called BNIP3 12-20

The first assay concerns the target T1, recombinant BNIP3 (BCL-2 adenovirus E1B 19 kDa interacting protein-3) (mouse, UniProt O55003 1-187, limits assumed, labelled with DyLight 650 for the microarray).
T1 construct: Bought recombinant protein (cusabio); also called recombinant BNIP3 (cusabio)
The assay is described as follows: peptide microarray, immobilised peptide, labelled recombinant BNIP3 in solution.
Experimental: (§1) Interaction studies. For protein-peptide interaction studies, peptide libraries were synthesised and immobilised on microarray slides.
(§2) Microarray. […] As labelling kit a DyLight Microscale Antibody Labeling Kit (Thermo) with label Dylight 650 was used. The assay was performed using the automated TECAN HS4800 microarray processing station. Microarrays were incubated with customer provided samples diluted in blocking buffer for 2 h at 30° C. Before each step, microarrays were washed with washing buffer. Microarrays were scanned using a high-resolution fluorescence scanner. Laser settings and applied resolution were identical for all performed measurements. The resulting images were analyzed und quantified using spot-recognition software GenePix (Molecular Devices). […] For further data evaluation, the so called MMC2 values were determined. The MMC2 equals the mean value of all three instances on the microarray except when the coefficient of variation (CV)—standard-deviation divided by the mean value—is larger 0.5. In this case the mean of the two closest values (MC2) is assigned to MMC2. All steps were performed by JPT Peptide Technologies (Berlin, Germany).
For the molecule B1, the Fluorescence intensity came out at 14400 arbitrary units.
On the same count and under the same terms, then B2, with 2660 arbitrary units.
Still for that read-out and setting: then B3, with 1040 arbitrary units; and B4, with 4890 arbitrary units.

The target in a further assay is T1, recombinant BNIP3 (BCL-2 adenovirus E1B …). Described as above. This is another data set of the same source.
Experimental: as §1, §2
Take B3: the Fluorescence intensity is 1040 arbitrary units.
With MSQSGEENLQGSWVELYFSN (Peptide immobilised on a microarray slide; attachment chemistry not stated., Peptide immobilised on the microarray) [substituted BNIP3-20A peptide MSQSGEENLQGSWVELYFSN (H17 -> Y)], the Fluorescence intensity stood at 7990 arbitrary units.
MSQSGEENLQYSWVELHFSN (Peptide immobilised on a microarray slide; attachment chemistry not stated., Peptide immobilised on the microarray) [substituted BNIP3-20A peptide MSQSGEENLQYSWVELHFSN (G11 -> Y)]: the Fluorescence intensity came out at 10200 arbitrary units.
The same measure, in the same setting: then MSQSGEENLQGSWVELHFFN (Peptide immobilised on the microarray) [substituted BNIP3-20A peptide MSQSGEENLQGSWVELHFFN (S19 -> F)], with 15000 arbitrary units; and MSQSGEENLQGSWVCLHFSN (Peptide immobilised on a microarray slide; attachment chemistry not stated., Peptide immobilised on the microarray) [substituted BNIP3-20A peptide MSQSGEENLQGSWVCLHFSN (E15 -> C)], with 7150 arbitrary units; and MSQSGYENLQGSWVELHFSN (Peptide immobilised on a microarray slide; attachment chemistry not stated., Peptide immobilised on the microarray) [substituted BNIP3-20A peptide MSQSGYENLQGSWVELHFSN (E6 -> Y)], with 13100 arbitrary units.
On to MSQSGEENLQGCWVELHFSN (Peptide immobilised on a microarray slide; attachment chemistry not stated., Peptide immobilised on the microarray) [substituted BNIP3-20A peptide MSQSGEENLQGCWVELHFSN (S12 -> C)], for which the Fluorescence intensity is 7040 arbitrary units.
With MSQSGEENLQGSWVELCFSN (Peptide immobilised on a microarray slide; attachment chemistry not stated., Peptide immobilised on the microarray) [substituted BNIP3-20A peptide MSQSGEENLQGSWVELCFSN (H17 -> C)], the Fluorescence intensity was 6790 arbitrary units.
